These results are taken from US20250152704A1 (PARAGON THERAPEUTICS, published 2025).

In assay [1] the target is T1, Recombinant in-house Human FcRn protein (human, UniProt P55899 24-297; P61769 21-119, limits assumed).
T1 construct: also called huFCRN; HuFcRn
The experiment in a line: SPR, pH 6. For orientation: SPR reads the build-up and loss of mass on a sensor chip optically.

In assay [2] the target is T2, cynomolgus monkey FcRn (cynomolgus monkey, UniProt Q8SPV9 24-297; Q8SPW0 21-119, limits assumed).
T2 construct: also called cynoFcRn
Kind of assay: SPR, pH 6.

Assay [3] addresses T3, mouse FcRn (mouse, UniProt Q61559 22-297; P01887 21-119, limits assumed).
T3 sequence (looked up) 1: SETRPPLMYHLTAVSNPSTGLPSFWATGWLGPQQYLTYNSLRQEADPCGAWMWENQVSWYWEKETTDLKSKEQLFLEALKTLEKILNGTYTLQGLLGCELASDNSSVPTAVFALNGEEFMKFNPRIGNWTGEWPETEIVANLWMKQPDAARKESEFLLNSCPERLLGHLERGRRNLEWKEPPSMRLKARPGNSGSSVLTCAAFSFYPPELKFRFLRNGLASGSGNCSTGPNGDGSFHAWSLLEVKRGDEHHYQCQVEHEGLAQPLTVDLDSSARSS
T3 sequence (looked up) 2: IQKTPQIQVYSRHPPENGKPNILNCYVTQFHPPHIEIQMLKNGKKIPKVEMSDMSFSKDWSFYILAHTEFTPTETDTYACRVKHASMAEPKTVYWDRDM
Kind of assay: SPR, pH 6.

The target of assay [4] is T4, rat FcRn (rat, UniProt P13599 23-298; P07151 21-119, limits assumed).
T4 sequence (looked up) 1: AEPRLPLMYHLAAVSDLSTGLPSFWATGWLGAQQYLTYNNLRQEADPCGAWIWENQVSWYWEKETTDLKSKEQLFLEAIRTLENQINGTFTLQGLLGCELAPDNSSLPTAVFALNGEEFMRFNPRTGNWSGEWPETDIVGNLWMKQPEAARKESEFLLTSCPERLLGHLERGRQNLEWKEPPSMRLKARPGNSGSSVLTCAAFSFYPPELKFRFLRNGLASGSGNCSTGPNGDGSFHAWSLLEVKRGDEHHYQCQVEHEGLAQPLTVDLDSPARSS
T4 sequence (looked up) 2: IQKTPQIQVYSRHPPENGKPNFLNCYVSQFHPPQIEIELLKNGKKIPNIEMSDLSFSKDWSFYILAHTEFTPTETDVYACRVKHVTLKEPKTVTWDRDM
The experiment in a line: SPR, pH 6.

Assay [5] concerns the target T1, Recombinant in-house Human FcRn protein. Kind of assay: SPR, pH 7.4.
For assay [6], the target named is T2, cynomolgus monkey FcRn. The experiment in a line: SPR, pH 7.4.
Assay [7] addresses T3, mouse FcRn. The experiment in a line: SPR, pH 7.4.
The target of assay [8] is T4, rat FcRn. The experiment in a line: SPR, pH 7.4.
The target of assay [9] is T1, Recombinant in-house Human FcRn protein. Kind of assay: competitive binding ELISA, pH 6.0, in triplicate; competitor IgG. Background: ELISA stands for enzyme-linked immunosorbent assay.
Assay [10] has the same target. The experiment in a line: competitive binding ELISA, pH 6.0; competitor Efgartigimod (Fc Fragment 1).

T1 sequence (P55899 24-297 limits assumed, chain 1 of 2): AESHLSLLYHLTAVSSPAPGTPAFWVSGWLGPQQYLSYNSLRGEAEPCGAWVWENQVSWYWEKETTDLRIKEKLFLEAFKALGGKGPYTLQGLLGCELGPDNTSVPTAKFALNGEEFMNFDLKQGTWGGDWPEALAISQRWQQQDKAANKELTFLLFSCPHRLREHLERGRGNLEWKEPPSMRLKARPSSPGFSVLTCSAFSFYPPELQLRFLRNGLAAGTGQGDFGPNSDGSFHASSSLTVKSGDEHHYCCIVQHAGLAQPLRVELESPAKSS
T1 sequence (P61769 21-119 limits assumed, chain 2 of 2): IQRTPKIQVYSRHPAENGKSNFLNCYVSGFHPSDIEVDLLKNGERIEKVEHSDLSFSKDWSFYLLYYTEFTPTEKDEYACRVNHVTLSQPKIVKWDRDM

B1: Fc Fragment 1 (other)
chain: DKTHTCPPCPAPELLGGPSVFLFPPKPKDTLYITREPEVTCVVVDVSHEDPEVKFNWYVDGVEVHNAKTKPREEQYNSTYRVVSVLTVLHQDWLNGKEYKCKVSNKALPAPIEKTISKAKGQPREPQVYTLPPSRDELTKNQVSLTCLVKGFYPSDIAVEWESNGQPENNYKTTPPVLDSDGSFFLYSKLTVDKSRWQQGNVFSCSVMHEALKFHYTQKSLSLSPG
notes: Human IgG1 Fc fragment (EU 221-446) with the named substitutions already in the entry; also called Efgartigimod (Efgart); Efgartigimod without the C-terminal lysine
Turning to B1, the Kd (commonly the equilibrium constant for the complex coming apart) in [1] worked out at 8.8 nM; with cynomolgus monkey FcRn [2], 39.7 nM; with mouse FcRn [3], 0.269 nM; with rat FcRn [4], 3.71 nM; in [5], 239 nM; with cynomolgus monkey FcRn [6] it was 1370 nM. Further, the Kd in the assay with mouse FcRn [7] worked out at 2.8 nM; with rat FcRn [8], 12.3 nM. Further, the IC50 (commonly the concentration that inhibits the measured activity by half) in assay [9] was determined as 2.85 nM; in [10], 4.82 nM.

B2: Fc Fragment 10 (other)
chain: DKTHTCPPCPAPELLGGPSVFLFPPKPKDTLYITREPEVTCVVVDVSHEDPEVKFNWYVDGVEVHNAKTKPREEQYNSTYRVVSVLTVLHQDWLNGKEYKCKVSNKALPAPIEKTISKAKGQPREPQVYTLPPSRDELTKNQVSLTCLVKGFYPSDIAVEWESNGQPENNYKTTPPVLDSDGSFFLYSKLTVDKSRWQQGNVFSCSVLHEALKYHYTQKSLSLSPG
notes: Human IgG1 Fc fragment; substitutions already in the entry
B2: the Kd came to 6.62 nM in [1]; 28.6 nM with cynomolgus monkey FcRn [2]; 0.143 nM with mouse FcRn [3]; 3.49 nM in the assay with rat FcRn [4]; 169 nM in [5]; 725 nM in the assay with cynomolgus monkey FcRn [6]. For the same molecule, the Kd is 1.53 nM with mouse FcRn [7] and 11.5 nM in the assay with rat FcRn [8]. In addition, the IC50 in [10] came out at 5.03 nM.

B3: Fc Fragment 3 (other)
chain: DKTHTCPPCPAPELLGGPSVFLFPPKPKDTLYITREPEVTCVVVDVSHEDPEVKFNWYVDGVEVHNAKTKPREEQYNSTYRVVSVLTVLHQDWLNGKEYKCKVSNKALPAPIEKTISKAKGQPREPQVYTLPPSRDELTKNQVSLTCLVKGFYPSDIAVEWESNGQPENNYKTTPPVLDSDGSFFLYSKLTVDKSRWQQGNVFSCSVMHEALKYHYTQKSLSLSPG
notes: Human IgG1 Fc fragment; substitutions already in the entry; also called Fc197
For B3, the dissociation constant Kd in assay [1] was 6.74 nM; with cynomolgus monkey FcRn [2], 28.9 nM; with mouse FcRn [3], 0.172 nM; with rat FcRn [4] it was 4.25 nM; in assay [5], 210 nM; with cynomolgus monkey FcRn [6], 948 nM. The Kd was determined as 2.38 nM in the assay with mouse FcRn [7] and 14.9 nM with rat FcRn [8]. The figures for the half-maximal inhibitory concentration (IC50) in assay [9] and in assay [10] were 0.77 nM and 4.59 nM, respectively.

B4: Fc Fragment 19 (other)
chain: DKTHTCPPCPAPELLGGPSVFLFPPKPKDTLYITREPEVTCVVVDVSHEDPEVKFNWYVDGVEVHNAKTKPREEQYNSTYRVVSVLTVDHKDWLNGKEYKCKVSNKALPAPIEKTISKAKGQPREPQVYTLPPSRDELTKNQVSLTCLVKGFYPSDIAVEWESNGQPENNYKTTPPVLDSDGSFFLYSKLTVDKSRWQQGNVFSCSVMHEALKFHYTQKSLSLSPG
notes: as for B2
Turning to B4, the Kd in assay [1] was 80.4 nM; in the assay with cynomolgus monkey FcRn [2], 1250 nM; in assay [5], 252 nM; with cynomolgus monkey FcRn [6] it was 1430 nM. Moreover, the IC50 in assay [9] was determined as 7.98 nM.

B5: Fc Fragment 2 (other)
chain: DKTHTCPPCPAPELLGGPSVFLFPPKPKDTLYITREPEVTCVVVDVSHEDPEVKFNWYVDGVEVHNAKTKPREEQYNSTYRVVSVLTVLHQDWLNGKEYKCKVSNKALPAPIEKTISKAKGQPREPQVYTLPPSRDELTKNQVSLTCLVKGFYPSDIAVEWESNGQPENNYKTTPPVLDSDGSFFLYSKLTVDKSRWQQGNVFSCSVLHEALKFHYTQKSLSLSPG
notes: Human IgG1 Fc fragment; substitutions already in the entry; also called Fc195
On to B5, for which the dissociation constant Kd in [1] was 8.05 nM; with cynomolgus monkey FcRn [2], 36.2 nM; in the assay with mouse FcRn [3], 0.182 nM; with rat FcRn [4], 3.5 nM; in assay [5], 259 nM; with cynomolgus monkey FcRn [6] it was 1540 nM. Further, the dissociation constant Kd with mouse FcRn [7] was found to be 2.55 nM; with rat FcRn [8], 11.8 nM. The IC50 in [9] was found to be 1.31 nM; in assay [10], 4.09 nM.

B6: Fc Fragment 16 (other)
chain: DKTHTCPPCPAPELLGGPSVFLFPPKPKDTLYITREPEVTCVVVDVSHEDPEVKFNWYVDGVEVHNAKTKPREEQYNSTYRVVSVLTVDHQDWLNGKEYKCKVSNKALPAPIEKTISKAKGQPREPQVYTLPPSRDELTKNQVSLTCLVKGFYPSDIAVEWESNGQPENNYKTTPPVLDSDGSFFLYSKLTVDKSRWQQGNVFSCSVMHEALKYHYTQKSLSLSPG
notes: as for B2
For the molecule B6, the results for the Kd (with cynomolgus monkey FcRn [2]; in assay [5]; in the assay with cynomolgus monkey FcRn [6]) were 47.2 nM, 371 nM and 1680 nM, respectively. The IC50 in assay [9] turned out to be 8.45 nM.

B7: Fc Fragment 11 (other)
chain: DKTHTCPPCPAPELLGGPSVFLFPPKPKDTLYITREPEVTCVVVDVSHEDPEVKFNWYVDGVEVHNAKTKPREEQYNSTYRVVSVLTVLHQDWLNGKEYKCKVSNKALPAPIEKTISKAKGQPREPQVYTLPPSRDELTKNQVSLTCLVKGFYPSDIAVEWESNGQPENNYKTTPPVLDSDGSFFLYSKLTVDKSRWQQGNVFSCSVLHEALHFHYTQKSLSLSPG
notes: as for B2
For B7, the Kd in assay [1] was found to be 8.41 nM; with cynomolgus monkey FcRn [2], 38.6 nM; with mouse FcRn [3], 0.248 nM; with rat FcRn [4], 2.9 nM; in assay [5], 269 nM; with cynomolgus monkey FcRn [6], 1700 nM. The Kd came out at 4.05 nM with mouse FcRn [7] and 14.7 nM with rat FcRn [8]. Besides, the half-inhibitory concentration (IC50) was determined as 1.51 nM in [9] and 6.47 nM in assay [10].

B8: Fc Fragment 17 (other)
chain: DKTHTCPPCPAPELLGGPSVFLFPPKPKDTLYITREPEVTCVVVDVSHEDPEVKFNWYVDGVEVHNAKTKPREEQYNSTYRVVSVLTVDHQDWLNGKEYKCKVSNKALPAPIEKTISKAKGQPREPQVYTLPPSRDELTKNQVSLTCLVKGFYPSDIAVEWESNGQPENNYKTTPPVLDSDGSFFLYSKLTVDKSRWQQGNVFSCSVLHEALKFHYTQKSLSLSPG
notes: as for B2
As for B8, the Kd in assay [1] was found to be 68.3 nM; with cynomolgus monkey FcRn [2], 62.1 nM; in [5] it was 293 nM; with cynomolgus monkey FcRn [6] it was 2190 nM. The IC50 in [9] was 10.2 nM.

B9: Fc Fragment 18 (other)
chain: DKTHTCPPCPAPELLGGPSVFLFPPKPKDTLYITREPEVTCVVVDVSHEDPEVKFNWYVDGVEVHNAKTKPREEQYNSTYRVVSVLTVDHQDWLNGKEYKCKVSNKALPAPIEKTISKAKGQPREPQVYTLPPSRDELTKNQVSLTCLVKGFYPSDIAVEWESNGQPENNYKTTPPVLDSDGSFFLYSKLTVDKSRWQQGNVFSCSVLHEALKYHYTQKSLSLSPG
notes: as for B2
B9: the Kd stood at 58.7 nM in [1], 51.2 nM in the assay with cynomolgus monkey FcRn [2], 262 nM in [5] and 2110 nM with cynomolgus monkey FcRn [6]. In addition, in assay [9], the IC50 was found to be 6.91 nM.

B10: Fc Fragment 15 (other)
chain: DKTHTCPPCPAPELLGGPSVFLFPPKPKDTLYITREPEVTCVVVDVSHEDPEVKFNWYVDGVEVHNAKTKPREEQYNSTYRVVSVLTVDHQDWLNGKEYKCKVSNKALPAPIEKTISKAKGQPREPQVYTLPPSRDELTKNQVSLTCLVKGFYPSDIAVEWESNGQPENNYKTTPPVLDSDGSFFLYSKLTVDKSRWQQGNVFSCSVMHEALKFHYTQKSLSLSPG
notes: as for B2
On to B10, for which the Kd in assay [1] worked out at 76.4 nM; with cynomolgus monkey FcRn [2], 60.8 nM; in [5], 291 nM; with cynomolgus monkey FcRn [6], 1430 nM. In addition, the IC50 in assay [9] was 30.3 nM.

B11: Fc Fragment 20 (other)
chain: DKTHTCPPCPAPELLGGPSVFLFPPKPKDTLYITREPEVTCVVVDVSHEDPEVKFNWYVDGVEVHNAKTKPREEQYNSTYRVVSVLTVDHKDWLNGKEYKCKVSNKALPAPIEKTISKAKGQPREPQVYTLPPSRDELTKNQVSLTCLVKGFYPSDIAVEWESNGQPENNYKTTPPVLDSDGSFFLYSKLTVDKSRWQQGNVFSCSVMHEALKYHYTQKSLSLSPG
notes: as for B2
On to B11, for which the Kd in [1] was 51.7 nM; with cynomolgus monkey FcRn [2], 372 nM; in [5] it was 290 nM; with cynomolgus monkey FcRn [6], 1550 nM. In addition, the IC50 in assay [9] was 5.18 nM.
